We go through two proteins from PMC3154929, “Phosphatase-Coupled Universal Kinase Assay and Kinetics for First-Order-Rate Coupling Reaction” (PLoS ONE, 2011).

Substrate in the series “purified protein”: Nc1ncnc2c1ncn2[C@@H]1O[C@H](COP(=O)(O)OP(=O)(O)OP(=O)(O)O)[C@@H](O)[C@H]1O
The experiment in a line: purified protein. The note with it: 20 mM glucose, 10 mM MgCl2, 10 mM CaCl2, 150 mM NaCl, 25 mM Tris pH 7.5, room temperature. The class given is biochemical, Homo sapiens.

Substrate in series [1]: Nc1ncnc2c1ncn2[C@@H]1O[C@H](COP(=O)(O)OP(=O)(O)O)[C@@H](O)[C@H]1O
The experiment in a line: malachite green phosphate release assay. The class given is biochemical, Mus musculus. The note with it: 25 mM Tris, 150 mM NaCl, 10 mM MgCl2, 10 mM CaCl2, pH 7.5, room temperature. An excerpt: (§1) malachite green phosphate release assay on CD39L2 (ENTPD6)

Substrate in series [2]: Nc1ncnc2c1ncn2[C@@H]1O[C@H](COP(=O)(O)OP(=O)(O)OP(=O)(O)O)[C@@H](O)[C@H]1O
Description: malachite green phosphate release assay. The class given is biochemical, Mus musculus. The settings on record: 25 mM Tris, 150 mM NaCl, 10 mM MgCl2, 10 mM CaCl2, pH 7.5, room temperature.
From the text: as §1

B1: human glucokinase (GCK) (Homo sapiens) (protein)
chain: VEQILAEFQLQEEDLKKVMRRMQKEMDRGLRLETHEEASVKMLPTYVRSTPEGSEVGDFLSLDLGGTNFRVMLVKVGEGEEGQWSVKTKHQMYSIPEDAMTGTAEMLFDYISECISDFLDKHQMKHKKLPLGFTFSFPVRHEDIDKGILLNWTKGFKASGAEGNNVVGLLRDAIKRRGDFEMDVVAMVNDTVATMISCYYEDHQCEVGMIVGTGCNACYMEEMQNVELVEGDEGRMCVNTEWGAFGDSGELDEFLLEYDRLVDESSANPGQQLYEKLIGGKYMGELVRLVLLRLVDENLLFHGEASEQLRTRGAFETRFVSQVESDTGDRKQIYNILSTLGLRPSTTDCDIVRRACESVSTRAAHMCSAGLAGVINRMRESRSEDVMRITVGVDGSVYKLHPSFKERFHASVRRLTPSCEITFIESEEGSGRGAALVSAVACKKACMLGQ
notes: V16 to Q465, N-terminal 6xHis tag, expressed in E. coli
By Km is commonly meant the concentration of substrate that gives half-maximal velocity. For the protein B1, the Michaelis-Menten constant (Km) in the series “purified protein” is 3550 µM.

B2: CD39L2 (ENTPD6) (Mus musculus) (protein)
chain: MRKIPNHGTLRMTKVAYPLGLCVGLFIYVAYIKWHRASAAQAFFTIAGAASGARWTQQAFSSPGSAARGHEVFYGIMFDAGSTGTRIHVFQFARPPGETPTLTHETFKALKPGLSAYADDVEKSAQGIQELLNVAKQHIPYDFWKATPLVLKATAGLRLLPGEKAQKLLQKVKEVFKASPFLVGDDCVSIMNGTDEGVSAWITVNFLTGSLKTPGSSSVGMLDLGGGSTQITFLPRVEGTLQASPPGHLTALQMFNRTYKLYSYSYLGLGLMSARLAILGGVEGKPAENDKELVSPCLSPRFRGEWEHAEVTYRISGQKAVGLYELCASRVSEVLRNKVHRTEEAQHVDFYAFSYYYDLAASFGLIDAEKGGSLVVGDFEIAAKYVCRTLETQPPSSPFACMDLTYISLLLHEFGFPGDKVLKLARKIDNVETSWALGAIFHYIDSLKRQKVPAL
notes: recombinant, R&D Systems
Broadly, the Vmax is the rate approached at saturating substrate. For orientation: kcat means the maximal rate divided by the concentration of active sites. In general, kcat/Km refers to the second-order rate constant that governs catalysis at low substrate concentration. Turning to B2, in series [1], the Km came to 1050 µM, the Vmax came to 49.1 µmol/min/mg, the turnover number (kcat) stood at 38.5 s⁻¹ and the catalytic efficiency (kcat/Km) worked out at 36600 M⁻¹ s⁻¹. For the same protein, in series [2], the Km is 1140 µM, the Vmax was 0.928 µmol/min/mg, the catalytic constant (kcat) was determined as 0.617 s⁻¹ and the kcat/Km is 727 M⁻¹ s⁻¹.
